Measurements: publication PMC12084609, “Structural insights into small-molecule agonist recognition and activation of complement receptor C3aR” (The EMBO Journal, 2025)
Substitutions are numbered along the chain they refer to. Where “and” joins values, the source holds several entries; their conditions need not be identical. Equal values may be shown once.

Experiments:
Format in all cases: cell-based
[1] = biological target: T1, C3aR H418^7.36A (Homo sapiens, UniProt Q16581, H418A); test: GloSensor-based cAMP assay, C3aR mutant H418A; conditions: for cAMP response (% Forskolin): single replicates
T1 construct: expressed in transfected cells; host or cells: HEK293T
T1 sequence (Q16581 1-482 H418A): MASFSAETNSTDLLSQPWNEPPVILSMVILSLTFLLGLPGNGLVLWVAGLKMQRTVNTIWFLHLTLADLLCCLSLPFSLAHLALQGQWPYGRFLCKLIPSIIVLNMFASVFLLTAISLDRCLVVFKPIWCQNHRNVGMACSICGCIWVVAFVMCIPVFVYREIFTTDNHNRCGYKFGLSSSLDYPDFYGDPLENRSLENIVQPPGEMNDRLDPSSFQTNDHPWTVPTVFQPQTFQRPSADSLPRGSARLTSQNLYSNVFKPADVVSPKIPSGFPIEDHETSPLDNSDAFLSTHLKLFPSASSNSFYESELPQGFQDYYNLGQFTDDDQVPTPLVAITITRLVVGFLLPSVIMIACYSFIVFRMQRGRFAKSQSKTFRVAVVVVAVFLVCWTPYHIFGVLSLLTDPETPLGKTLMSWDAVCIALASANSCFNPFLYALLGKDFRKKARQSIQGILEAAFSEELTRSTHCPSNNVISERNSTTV
Protocol: (§1) HEK293T cells were seeded on 6-well plates (NEST) and transfected with pGlosensor™-22F plasmids (Promega) and pcDNA3.1 plasmids encoding C3aR or its mutants an with N-terminal FLAG tag. After 48 h, cells were detached with Accutase solution (Sigma-Aldrich) and washed with PBS, and resuspended in assay buffer (CO2-independent medium with 0.5 mg mL^−1D-luciferin). 100,000–200,000 cells were seeded on 96-well white bottom plates (SPL) and incubated at 37 °C for 45 min followed by 45 min incubation at room temperature. After 90 min of incubation, basal luminescence signals were recorded. In total, 25 μl of test ligand with various concentrations and 1 μM Forskolin (Sigma-Aldrich) were treated to the cells and luminescence signals were measured by Tristar 2 LB 942 multimode reader (Berthold). […] Relative luminescence unit (%) was calculated with the signal of wells treated with vehicle as 0% and the signal of wells treated with 1 μM Forskolin as 100% (DiRaddo et al, [2014]). Nonlinear regression was performed using a three-parameter logistic equation.

[2] = biological target: T2, C3aR P99^3.29A (Homo sapiens, UniProt Q16581, P99A); test: GloSensor-based cAMP assay, C3aR mutant P99A; conditions: for cAMP response (% Forskolin): P993.29A, single replicates
T2 construct: expressed in transfected cells; host or cells: HEK293T
T2 sequence (Q16581 1-482 P99A): T1 sequence (Q16581 1-482 H418A) with P99A, A418H
Protocol: as §1

[3] = biological target: T3, C3aR I421^7.39A (Homo sapiens, UniProt Q16581, I421A); test: GloSensor-based cAMP assay, C3aR mutant I421A; conditions: for cAMP response (% Forskolin): I4217.39A, single replicates
T3 construct: expressed in transfected cells; host or cells: HEK293T
T3 sequence (Q16581 1-482 I421A): T1 sequence (Q16581 1-482 H418A) with A418H, I421A
Protocol: as §1

[4] = Dunnett's multiple comparisons test, WT minus mutant

Q: How did the “Mean Diff. of pIC50, WT vs. H418A” value [1, 4] turn out when “C3a: anaphylatoxin C3a, natural peptide ligand of C3aR (a 77-amino acid peptide), Sigma-Aldrich” was run?
A: 0.008

Q: What about the “cAMP response (% Forskolin)” value ([1]; H418A, Log[C3a (M)] -7) of the same substance?
A: 25.95 % Forskolin and 18.34 % Forskolin and 14.90 % Forskolin and 10.15 % Forskolin

Q: What about the “cAMP response (% Forskolin)” value ([1]; H418A, Log[C3a (M)] -8) of the same substance?
A: 26.38 % Forskolin and 19.33 % Forskolin and 14.37 % Forskolin and 9.75 % Forskolin

Q: What about the “cAMP response (% Forskolin)” value ([1]; H418A, Log[C3a (M)] -9) of the same substance?
A: 37.00 % Forskolin and 39.46 % Forskolin and 38.86 % Forskolin and 18.94 % Forskolin

Q: And the “cAMP response (% Forskolin)” value ([1]; H418A, Log[C3a (M)] -10)?
A: 73.80 % Forskolin and 84.21 % Forskolin and 84.87 % Forskolin and 53.38 % Forskolin

Q: What about the “cAMP response (% Forskolin)” value ([1]; H418A, Log[C3a (M)] -11) of the same substance?
A: 92.78 % Forskolin and 94.37 % Forskolin and 96.55 % Forskolin and 91.56 % Forskolin

Q: And the “cAMP response (% Forskolin)” value ([1]; H418A, Log[C3a (M)] -12)?
A: 97.08 % Forskolin and 98.99 % Forskolin and 94.98 % Forskolin and 97.61 % Forskolin

Q: And the “ΔpIC50 ± SE of Diff.” value ([1]; H418^7.36A relative to WT C3aR)?
A: -0.008 ± 0.011

Q: What about the IC50 ([1]; H418^7.36A, dose-response plot, read-out: IC50) of the same substance?
A: 3.34 nM

Q: And the “pIC50 (Replicate)” value ([1]; H418^7.36A, individual replicates)?
A: 8.55 and 8.43 and 8.42 (2×) and 8.38 and 8.70

Q: And the “pIC50 ± SEM (Mean)” value ([1]; H418^7.36A, mean of independent experiments)?
A: 8.49

Q: What about the “cAMP response (% Forskolin)” value ([1]; H4187.36A, Log[C3a (M)] -7) of the same substance?
A: 18.06 % Forskolin and 18.98 % Forskolin and 15.70 % Forskolin and 12.14 % Forskolin and 13.13 % Forskolin and 12.07 % Forskolin and 13.03 % Forskolin

Q: What about the “cAMP response (% Forskolin)” value ([1]; H4187.36A, Log[C3a (M)] -8) of the same substance?
A: 24.13 % Forskolin and 25.40 % Forskolin and 25.03 % Forskolin and 14.18 % Forskolin and 21.72 % Forskolin and 18.92 % Forskolin and 21.43 % Forskolin

Q: And the “cAMP response (% Forskolin)” value ([1]; H4187.36A, Log[C3a (M)] -9)?
A: 81.20 % Forskolin and 92.26 % Forskolin and 92.38 % Forskolin and 94.46 % Forskolin and 94.81 % Forskolin and 73.56 % Forskolin and 81.94 % Forskolin

Q: And the “cAMP response (% Forskolin)” value ([1]; H4187.36A, Log[C3a (M)] -10)?
A: 97.67 % Forskolin and 104.16 % Forskolin and 99.86 % Forskolin and 96.43 % Forskolin and 93.22 % Forskolin and 100.34 % Forskolin and 90.38 % Forskolin

Q: And the “cAMP response (% Forskolin)” value ([1]; H4187.36A, Log[C3a (M)] -11)?
A: 100.38 % Forskolin and 103.33 % Forskolin and 102.03 % Forskolin and 95.26 % Forskolin and 97.84 % Forskolin and 98.73 % Forskolin and 97.27 % Forskolin

Q: What about the “cAMP response (% Forskolin)” value ([1]; H4187.36A, Log[C3a (M)] -12) of the same substance?
A: 93.49 % Forskolin and 89.91 % Forskolin and 97.60 % Forskolin and 95.65 % Forskolin and 97.38 % Forskolin and 104.40 % Forskolin and 97.91 % Forskolin

Q: What about the “Mean Diff. of pIC50, WT vs. P99A” value [2, 4] of the same substance?
A: 0.364

Q: And the “ΔpIC50 ± SE of Diff.” value ([2]; P99^3.29A relative to WT C3aR)?
A: -0.36 ± 0.06

Q: What about the IC50 ([2]; P99^3.29A, dose-response plot, read-out: IC50) of the same substance?
A: 6.44 nM

Q: What about the “pIC50 (Replicate)” value ([2]; P99^3.29A, individual replicates) of the same substance?
A: 8.35 and 8.23 and 8.15

Q: What about the “pIC50 ± SEM (Mean)” value ([2]; P99^3.29A, mean of independent experiments) of the same substance?
A: 8.18

Q: What about the “cAMP response (% Forskolin)” value ([2]; Log[C3a (M)] -7) of the same substance?
A: 12.82 % Forskolin and 13.55 % Forskolin and 15.36 % Forskolin and 12.84 % Forskolin

Q: And the “cAMP response (% Forskolin)” value ([2]; Log[C3a (M)] -8)?
A: 28.00 % Forskolin and 35.91 % Forskolin and 53.45 % Forskolin and 42.74 % Forskolin

Q: And the “cAMP response (% Forskolin)” value ([2]; Log[C3a (M)] -9)?
A: 95.96 % Forskolin and 92.86 % Forskolin and 104.37 % Forskolin and 97.87 % Forskolin

Q: What about the “cAMP response (% Forskolin)” value ([2]; Log[C3a (M)] -10) of the same substance?
A: 102.35 % Forskolin and 93.68 % Forskolin and 104.69 % Forskolin and 98.88 % Forskolin

Q: What about the “cAMP response (% Forskolin)” value ([2]; Log[C3a (M)] -11) of the same substance?
A: 98.97 % Forskolin and 94.82 % Forskolin and 109.09 % Forskolin and 99.84 % Forskolin

Q: And the “cAMP response (% Forskolin)” value ([2]; Log[C3a (M)] -12)?
A: 103.44 % Forskolin and 97.11 % Forskolin and 100.69 % Forskolin and 103.75 % Forskolin

Q: And the “Mean Diff. of pIC50, WT vs. I421A” value [3, 4]?
A: -0.119

Q: What about the “reduction in ligand-induced signaling vs WT” value ([3]; I421^7.39A mutant) of the same substance?
A: minor effect

Q: What about the “ΔpIC50 ± SE of Diff.” value ([3]; I421^7.39A relative to WT C3aR) of the same substance?
A: 0.12 ± 0.03

Q: What about the IC50 ([3]; I421^7.39A, dose-response plot, read-out: IC50) of the same substance?
A: 2.54 nM

Q: What about the “pIC50 (Replicate)” value ([3]; I421^7.39A, individual replicates) of the same substance?
A: 8.63 and 8.57 and 8.45 and 8.43 and 8.89 and 8.83

Q: And the “pIC50 ± SEM (Mean)” value ([3]; I421^7.39A, mean of independent experiments)?
A: 8.61

Q: And the “cAMP response (% Forskolin)” value ([3]; Log[C3a (M)] -7)?
A: 16.32 % Forskolin and 12.05 % Forskolin and 12.43 % Forskolin and 14.57 % Forskolin and 9.51 % Forskolin and 8.99 % Forskolin and 8.25 % Forskolin

Q: What about the “cAMP response (% Forskolin)” value ([3]; Log[C3a (M)] -8) of the same substance?
A: 20.11 % Forskolin and 16.00 % Forskolin and 16.82 % Forskolin and 18.52 % Forskolin and 13.73 % Forskolin and 11.22 % Forskolin and 10.34 % Forskolin

Q: What about the “cAMP response (% Forskolin)” value ([3]; Log[C3a (M)] -9) of the same substance?
A: 77.07 % Forskolin and 83.92 % Forskolin and 80.09 % Forskolin and 92.33 % Forskolin and 88.01 % Forskolin and 57.33 % Forskolin and 61.66 % Forskolin

Q: And the “cAMP response (% Forskolin)” value ([3]; Log[C3a (M)] -10)?
A: 97.12 % Forskolin and 96.88 % Forskolin and 97.52 % Forskolin and 98.66 % Forskolin and 91.65 % Forskolin and 90.54 % Forskolin and 92.28 % Forskolin

Q: What about the “cAMP response (% Forskolin)” value ([3]; Log[C3a (M)] -11) of the same substance?
A: 100.24 % Forskolin and 95.23 % Forskolin and 97.32 % Forskolin and 97.61 % Forskolin and 88.75 % Forskolin and 89.55 % Forskolin and 96.90 % Forskolin

Q: What about the “cAMP response (% Forskolin)” value ([3]; Log[C3a (M)] -12) of the same substance?
A: 96.20 % Forskolin and 95.22 % Forskolin and 96.06 % Forskolin and 97.86 % Forskolin and 95.09 % Forskolin and 99.13 % Forskolin and 96.01 % Forskolin
